For data set [1], the system named is HeLa Kyoto. The data set is described as follows: solubility change mitosis vs G1/S (difference of NP-40 vs SDS log2 ratios) (log2 ratio difference); higher = more soluble in mitosis.
In data set [2] the test system is HeLa Kyoto. The data set is described as follows: thermal stability score vs G1/S (z-score of summed log2 fold changes over temperatures); higher = more thermally stable than in G1/S.
Data set [3] relates to HeLa Kyoto. Briefly: solubility in G1/S (NP-40 vs SDS abundance) (log2 ratio); higher = more soluble. Conditions: cell cycle stage: G1/S.
The mark [4] stands for this setting: cell cycle stage: early G1 (4.5 h after nocodazole release).

The values below come from the supplement of paper PMC5998384.
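For solubility change mitosis vs G1/S (difference of NP-40 vs SDS log2 ratios) in this document: synchronized HeLa Kyoto cells (double thymidine block for G1/S, nocodazole release for mitosis), protein amounts in NP-40 versus SDS lysates quantified by mass spectrometry, three biological replicates.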
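For solubility in G1/S (NP-40 vs SDS abundance) in this document: HeLa Kyoto cells arrested at G1/S by double thymidine block, proteins quantified by TMT10plex mass spectrometry in mild NP-40 versus SDS extracts, three biological replicates.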
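For thermal stability score vs G1/S (z-score of summed log2 fold changes over temperatures) in this document: synchronized HeLa Kyoto cells, proteins quantified by TMT10plex mass spectrometry, three biological replicates, mitosis taken 0.5 h after nocodazole release, G1/S directly after double thymidine block.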

Regarding “MIDSVKLRRDSAADFFSHYEYLCALQNSVPLPAVRACLREGVLDFNADRLRGVDWAPLLSTLKINKDLPLVSIKSFFQPWLGDTGSDMNKFCRSRVPAIRYKDVTFQLCKALKGCLSISSVLKNLELNGLILRERDLTILAKGLNKSASLVHLSLANCPIGDGGLEIICQGIKSSITLKTVNFTGCNLTWQGADHMAKILKYQTMRRHEETWAESLRYRRPDLDCMAGLRRITLNCNTLIGDLGACAFADSLSEDLWLRALDLQQCGLTNEGAKALLEALETNTTLVVLDIRKNPLIDHSMMKAVIKKVLQNGRSAKSEYQWITSPSVKEPSKTAKQKRRTIILGSGHKGKATIRIGLATKKPVSSGRKHSLGKEYYAPAPLPPGVSGFLPWRTAERAKRHRGFPLIKTRDICNQLQQPGFPVTVTVESPSSSEVEEVDDSSESVHEVPEKTSIEQEALQEKLEECLKQLKEERVIRLKVDKRVSELEHENAQLRNINFSLSEALHAQSLTNMILDDEGVLGSIENSFQKFHAFLDLLKDAGLGQLATMAGIDQSDFQLLGHPQMTSTVSNPPKEEKKALEDEKPEPKQNALGQMQNIQFQKITGDARIPLPLDSFPVPVSTPEGLGTSSNNLGVPATEQRQESFEGFIARMCSPSPDATSGTGSQRKEEELSRNSRSSSEKKTKTESH [CEP78]”, the “solubility change mitosis (log2)” value with HeLa Kyoto [1] came to 0.821. The thermal stability score in the data set on HeLa Kyoto [2] (setting [4]) came to 2.82; in the data set with HeLa Kyoto [2] (cell cycle stage: mitosis) it was 3.49. The “solubility in G1/S (log2)” value in the data set with HeLa Kyoto [3] was determined as 0.0898.

As to “MKDYDELLKYYELHETIGTGGFAKVKLACHILTGEMVAIKIMDKNTLGSDLPRIKTEIEALKNLRHQHICQLYHVLETANKIFMVLEYCPGGELFDYIISQDRLSEEETRVVFRQIVSAVAYVHSQGYAHRDLKPENLLFDEYHKLKLIDFGLCAKPKGNKDYHLQTCCGSLAYAAPELIQGKSYLGSEADVWSMGILLYVLMCGFLPFDDDNVMALYKKIMRGKYDVPKWLSPSSILLLQQMLQVDPKKRISMKNLLNHPWIMQDYNYPVEWQSKNPFIHLDDDCVTELSVHHRNNRQTMEDLISLWQYDHLTATYLLLLAKKARGKPVRLRLSSFSCGQASATPFTDIKSNNWSLEDVTASDKNYVAGLIDYDWCEDDLSTGAATPRTSQFTKYWTESNGVESKSLTPALCRTPANKLKNKENVYTPKSAVKNEEYFMFPEPKTPVNKNQHKREILTTPNRYTTPSKARNQCLKETPIKIPVNSTGTDKLMTGVISPERRCRSVELDLNQAHMEETPKRKGAKVFGSLERGLDKVITVLTRSKRKGSARDGPRRLKLHYNVTTTRLVNPDQLLNEIMSILPKKHVDFVQKGYTLKCQTQSDFGKVTMQFELEVCQLQKPDVVGIRRQRLKGDAWVYKRLVEDILSSCKV [MELK]”, the “solubility change mitosis (log2)” value with HeLa Kyoto [1] is 0.0602. Also, the thermal stability score was -0.242 in the data set on HeLa Kyoto [2] (setting [4]) and 0.0849 in the data set with HeLa Kyoto [2] (cell cycle stage: mitosis). Moreover, the “solubility in G1/S (log2)” value in the data set on HeLa Kyoto [3] is -0.42.

Turning to “MKEEAFLRRRFSLCPPSSTPQKVDPRKLTRNLLLSGDNELYPLSPGKDMEPNGPSLPRDEGPPTPSSATKVPPAEYRLCNGSDKECVSPTARVTKKETLKAQKENYRQEKKRATRQLLSALTDPSVVIMADSLKIRGTLKSWTKLWCVLKPGVLLIYKTPKVGQWVGTVLLHCCELIERPSKKDGFCFKLFHPLDQSVWAVKGPKGESVGSITQPLPSSYLIFRAASESDGRCWLDALELALRCSSLLRLGTCKPGRDGEPGTSPDASPSSLCGLPASATVHPDQDLFPLNGSSLENDAFSDKSERENPEESDTETQDHSRKTESGSDQSETPGAPVRRGTTYVEQVQEELGELGEASQVETVSEENKSLMWTLLKQLRPGMDLSRVVLPTFVLEPRSFLNKLSDYYYHADLLSRAAVEEDAYSRMKLVLRWYLSGFYKKPKGIKKPYNPILGETFRCCWFHPQTDSRTFYIAEQVSHHPPVSAFHVSNRKDGFCISGSITAKSRFYGNSLSALLDGKATLTFLNRAEDYTLTMPYAHCKGILYGTMTLELGGKVTIECAKNNFQAQLEFKLKPFFGGSTSINQISGKITSGEEVLASLSGHWDRDVFIKEEGSGSSALFWTPSGEVRRQRLRQHTVPLEEQTELESERLWQHVTRAISKGDQHRATQEKFALEEAQRQRARERQESLMPWKPQLFHLDPITQEWHYRYEDHSPWDPLKDIAQFEQDGILRTLQQEAVARQTTFLGSPGPRHERSGPDQRLRKASDQPSGHSQATESSGSTPESCPELSDEEQDGDFVPGGESPCPRCRKEARRLQALHEAILSIREAQQELHRHLSAMLSSTARAAQAPTPGLLQSPRSWFLLCVFLACQLFINHILK [OSBPL5]”, the “solubility change mitosis (log2)” value in the data set on HeLa Kyoto [1] turned out to be 0.12. Besides, the thermal stability score was found to be 0.206 in the data set with HeLa Kyoto [2] (setting [4]) and 0.353 in the data set on HeLa Kyoto [2] (cell cycle stage: mitosis). Also, the “solubility in G1/S (log2)” value in the data set on HeLa Kyoto [3] was -0.0107.

Consider “MKGFKLSCTASNSNRSTPACSPILRKRSRSPTPQNQDGDTMVEKGSDHSSDKSPSTPEQGVQRSCSSQSGRSGGKNSKKSQSWYNVLSPTYKQRNEDFRKLFKQLPDTERLIVDYSCALQRDILLQGRLYLSENWICFYSNIFRWETLLTVRLKDICSMTKEKTARLIPNAIQVCTDSEKHFFTSFGARDRTYMMMFRLWQNALLEKPLCPKELWHFVHQCYGNELGLTSDDEDYVPPDDDFNTMGYCEEIPVEENEVNDSSSKSSIETKPDASPQLPKKSITNSTLTSTGSSEAPVSFDGLPLEEEALEGDGSLEKELAIDNIMGEKIEMIAPVNSPSLDFNDNEDIPTELSDSSDTHDEGEVQAFYEDLSGRQYVNEVFNFSVDKLYDLLFTNSPFQRDFMEQRRFSDIIFHPWKKEENGNQSRVILYTITLTNPLAPKTATVRETQTMYKASQESECYVIDAEVLTHDVPYHDYFYTINRYTLTRVARNKSRLRVSTELRYRKQPWGLVKTFIEKNFWSGLEDYFRHLESELAKTESTYLAEMHRQSPKEKASKTTTVRRRKRPHAHLRVPHLEEVMSPVTTPTDEDVGHRIKHVAGSTQTRHIPEDTPNGFHLQSVSKLLLVISCVICFSLVLLVILNMMLFYKLWMLEYTTQTLTAWQGLRLQERLPQSQTEWAQLLESQQKYHDTELQKWREIIKSSVMLLDQMKDSLINLQNGIRSRDYTSESEEKRNRYH [GRAMD1B]”, for which the “solubility change mitosis (log2)” value with HeLa Kyoto [1] came to 0.151. The thermal stability score was -0.0752 with HeLa Kyoto [2] (setting [4]) and -0.742 in the data set with HeLa Kyoto [2] (cell cycle stage: mitosis). In addition, the “solubility in G1/S (log2)” value in the data set with HeLa Kyoto [3] was -0.0228.
